Test [1] has as its target T1, microtubules of recombinant human TUBA1B/TUBB3 tubulin with TUBB3 R262A (human, UniProt P68363-1 1-451; Q13509-1 1-450, K40R | R262A).
T1 construct: human beta3-tubulin TUBB3 with the synthetic mutation R262A; also called R262A MTs; β-R262A MT; source: HighFive insect cells (baculovirus), purified (DEAE Sepharose, TALON, anti-FLAG resin), polymerized with taxol; not shown: FLAG (DYKDDDDK)
The experiment in a line: co-sedimentation; BG-549-labelled HK349 with MTs; x2 MA buffer, 1 mg/ml casein, 40 uM taxol, 1 U/ml apyrase (nucleotide-free state). The settings on record: both partners purified.

Test [2] addresses T1, microtubules of recombinant human …. Description: co-sedimentation; BG-549-labelled HK349 with MTs; x2 MA buffer, 1 mg/ml casein, 40 uM taxol, 1 mM ADP and 1 U/ml hexokinase (ADP state). As to conditions: both partners purified.
Test [3] has the same target. The experiment in a line: co-sedimentation; BG-549-labelled HK349 with MTs; x2 MA buffer, 1 mg/ml casein, 40 uM taxol, 1 mM AMPPNP and 1 U/ml apyrase (AMPPNP state). As to conditions: both partners purified.
In test [4] the target is microtubules of recombinant human TUBA1B/TUBB3 tubulin with TUBB3 R262H (human) (UniProt P68363).
Test [5] has as its target microtubules of recombinant human TUBA1B/TUBB3 tubulin with TUBB3 R262A (human) (UniProt P68363).
Test [6] has as its target T2, microtubules of recombinant human TUBA1B/TUBB3 tubulin, wild type (human, UniProt P68363-1 1-451; Q13509-1 1-450, K40R).
T2 construct: Polymer of alpha/beta heterodimers stabilised with taxol; also called WT MTs; WT MT; source: HighFive insect cells (baculovirus), purified (DEAE Sepharose, TALON, anti-FLAG resin), polymerized with taxol; not shown: FLAG (DYKDDDDK)
The experiment in a line: single-molecule motility assay (total internal reflection fluorescence microscopy); MTs immobilised on PEG-coated glass via streptavidin and biotinylated nonmotile kinesin HK340-E236A; BG-549-labelled HK432 at 0.4 nM; x2 MA buffer pH 6.8, 1 mM ATP, 1 mg/ml casein, 10 uM taxol, 25 °C. The settings on record: both partners purified.

For test [7], the target named is T1, microtubules of recombinant human …. The test is described as above. The settings on record: both partners purified.

Where a chain is given by its changes, count along the chain named. Numbers in names are those of the source.

T2 sequence (P68363 whole entry K40R, chain 1 of 2): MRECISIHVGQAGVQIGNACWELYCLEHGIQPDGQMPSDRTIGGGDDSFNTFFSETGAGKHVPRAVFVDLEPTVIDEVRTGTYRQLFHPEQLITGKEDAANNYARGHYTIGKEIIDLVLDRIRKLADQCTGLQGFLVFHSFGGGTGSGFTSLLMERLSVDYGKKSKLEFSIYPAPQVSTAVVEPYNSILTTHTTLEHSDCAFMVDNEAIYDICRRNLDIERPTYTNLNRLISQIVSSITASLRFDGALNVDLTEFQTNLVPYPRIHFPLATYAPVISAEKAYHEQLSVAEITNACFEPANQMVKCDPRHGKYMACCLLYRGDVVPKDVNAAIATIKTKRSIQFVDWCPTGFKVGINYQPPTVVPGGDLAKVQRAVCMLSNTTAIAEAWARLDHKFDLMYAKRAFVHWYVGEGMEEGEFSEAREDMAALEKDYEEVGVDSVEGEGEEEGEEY
T2 sequence (Q13509 whole entry, chain 2 of 2): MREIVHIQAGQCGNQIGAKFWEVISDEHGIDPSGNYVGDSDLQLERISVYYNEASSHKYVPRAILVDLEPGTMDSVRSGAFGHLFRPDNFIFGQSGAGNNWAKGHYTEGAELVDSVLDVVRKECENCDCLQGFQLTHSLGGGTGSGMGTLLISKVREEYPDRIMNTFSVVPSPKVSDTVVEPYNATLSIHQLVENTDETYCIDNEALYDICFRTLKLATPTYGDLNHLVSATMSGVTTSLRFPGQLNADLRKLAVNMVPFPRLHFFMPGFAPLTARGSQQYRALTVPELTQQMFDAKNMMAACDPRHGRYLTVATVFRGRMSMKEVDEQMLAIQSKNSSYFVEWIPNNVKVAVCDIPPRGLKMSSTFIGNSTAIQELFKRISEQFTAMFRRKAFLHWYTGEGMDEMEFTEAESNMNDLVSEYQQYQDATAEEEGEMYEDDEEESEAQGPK
T1 sequence (P68363 whole entry K40R, chain 1 of 2): as the sequence (P68363 whole entry K40R, chain 1 of 2) above
T1 sequence (Q13509 whole entry R262A, chain 2 of 2): as the sequence (Q13509 whole entry, chain 2 of 2) above, with R262A counted along it
Sequence of microtubules of recombinant human TUBA1B/TUBB3 tubulin with TUBB3 R262H (human) (P68363 whole entry K40R, chain 1 of 2): as the sequence (P68363 whole entry K40R, chain 1 of 2) above
Sequence of microtubules of recombinant human TUBA1B/TUBB3 tubulin with TUBB3 R262H (human) (Q13509 whole entry R262H, chain 2 of 2, further chain): as the sequence (Q13509 whole entry, chain 2 of 2) above, with R262H counted along it
Sequence of microtubules of recombinant human TUBA1B/TUBB3 tubulin with TUBB3 R262A (human) (P68363 whole entry K40R, chain 1 of 2): as the sequence (P68363 whole entry K40R, chain 1 of 2) above
Sequence of microtubules of recombinant human TUBA1B/TUBB3 tubulin with TUBB3 R262A (human) (Q13509 whole entry R262A, chain 2 of 2, further chain): as the sequence (Q13509 whole entry, chain 2 of 2) above, with R262A counted along it

B1: D279R KIF5B, single-headed construct HK349 (residues 1-349, SNAP tag, His6) (domain or fragment, human, UniProt P33176 1-349, looked up)
chain: MADLAECNIKVMCRFRPLNESEVNRGDKYIAKFQGEDTVVIASKPYAFDRVFQSSTSQEQVYNDCAKKIVKDVLEGYNGTIFAYGQTSSGKTHTMEGKLHDPEGMGIIPRIVQDIFNYIYSMDENLEFHIKVSYFEIYLDKIRDLLDVSKTNLSVHEDKNRVPYVKGCTERFVCSPDEVMDTIDEGKSNRHVAVTNMNEHSSRSHSIFLINVKQENTQTEQKLSGKLYLVDLAGSEKVSKTGAEGAVLDEAKNINKSLSALGNVISALAEGSTYVPYRRSKMTRILQDSLGGNCRTTIVICCSPSSYNESETKSTLLFGQRAKTIKNTVCVNVELTAEQWKKKYEKEKE
modifications: fluorescent dye BG-549 (SNAP-surface 549) on the SNAP tag
notes: kinesin-1 heavy chain KIF5B, residues 1-349, D279R in the L12 loop
On to B1, for which the “fold increase in Kd against the WT–WT pair” value in test [1] was 10 fold; in test [2], 2 fold.

B2: single-headed KIF5B construct HK349 (residues 1-349, SNAP tag, His6) (domain or fragment, human, UniProt P33176 1-349, looked up)
chain: B1 chain with R279D
modifications: fluorescent dye BG-549 (SNAP-surface 549) on the SNAP tag
notes: kinesin-1 heavy chain KIF5B, residues 1-349; monomeric construct; also called K349-SNAP-His; minimal motor
As for B2, the “fold increase in Kd against the WT–WT pair” value in test [3] is roughly 90 fold; in test [1] it was roughly 70 fold; in test [2], roughly 6 fold.

B3: two-headed KIF5B motor, human KIF5B construct HK432 (residues 1-432, SNAP tag, His6) (domain or fragment, UniProt P33176 1-432, looked up)
chain: MADLAECNIKVMCRFRPLNESEVNRGDKYIAKFQGEDTVVIASKPYAFDRVFQSSTSQEQVYNDCAKKIVKDVLEGYNGTIFAYGQTSSGKTHTMEGKLHDPEGMGIIPRIVQDIFNYIYSMDENLEFHIKVSYFEIYLDKIRDLLDVSKTNLSVHEDKNRVPYVKGCTERFVCSPDEVMDTIDEGKSNRHVAVTNMNEHSSRSHSIFLINVKQENTQTEQKLSGKLYLVDLAGSEKVSKTGAEGAVLDEAKNINKSLSALGNVISALAEGSTYVPYRDSKMTRILQDSLGGNCRTTIVICCSPSSYNESETKSTLLFGQRAKTIKNTVCVNVELTAEQWKKKYEKEKEKNKILRNTIQWLENELNRWRNGETVPIDEQFDKEKANLEAFTVDKDITLTNDKPATAIGVIGNFTDAERRKCEEEIAKLYKQL
modifications: fluorescent dye BG-549 (SNAP-surface 549) on the SNAP tag
notes: human kinesin-1 heavy chain KIF5B, residues 1-432; also called WT KIF5B
Take B3: in test [4], the MT-activated kinesin ATPase, apparent Michaelis–Menten constant K0.5MT as multiple of that with WT MTs is 9.7 times of WT and the MT-activated kinesin ATPase, kcat as percent of that with WT MTs was 17 % of WT. In addition, in test [5], the MT-activated kinesin ATPase, apparent Michaelis–Menten constant K0.5MT as multiple of that with WT MTs is 10 times of WT and the MT-activated kinesin ATPase, kcat as percent of that with WT MTs is 23 % of WT. The binding result in test [6] is listed as “binds”.

B4: D279N KIF5B, construct HK432 (residues 1-432, SNAP tag, His6) (domain or fragment, human, UniProt P33176 1-432, looked up)
chain: B3 chain with D279N
modifications: fluorescent dye BG-549 (SNAP-surface 549) on the SNAP tag
notes: human kinesin-1 heavy chain KIF5B, residues 1-432, D279N in the L12 loop; also called mutant HK432
For the molecule B4, in test [6], the binding result is “binds”.

B5: D279R KIF5B, construct HK432 (residues 1-432, SNAP tag, His6) (domain or fragment, human, UniProt P33176 1-432, looked up)
chain: B3 chain with D279R
modifications: fluorescent dye BG-549 (SNAP-surface 549) on the SNAP tag
notes: human kinesin-1 heavy chain KIF5B, residues 1-432, D279R in the L12 loop; also called mutant HK432
Consider B5, for which, in test [7], the “binding frequency, fold of that of WT KIF5B to WT MT” value was determined as 2 fold. For the same molecule, the binding result in test [6] is recorded as “binds”.

The values above are taken from PMC4735607, “Reversal of axonal growth defects in an extraocular fibrosis model by engineering the kinesin–microtubule interface” (Nature Communications, 2016).
